{"source": "patent US20080063623A1", "about": "(INTEVERT INTERNATIONAL B V, published 2008)", "target": "the molecule itself", "experiment": "transfection of COS-7 cells, non-denaturing Western blot of supernatants", "protocol": "COS-7 cells were transfected with 1.5 μg of each cDNA construct using the Invitrogen Life Technologies Lipofectamine™ reagent (as described by the manufacturer) and cultured in 3-cm dishes with DMEM (without FCS and penicillin/streptomycin). After 8 h, transfected cells were washed and cultured in DMEM with penicillin/streptomycin and 10% FCS. After 72 h incubation at 37° C./5% C0₂ the cell culture supernatants were harvested and centrifuged at 13,000 rpm for 10 min at 4° C. to remove cell debris. The supernatants were analyzed via Western blotting and used immediately or stored at −70° C.\nCell culture supernatants from transfected COS-7 cells were size fractionated using 4-12% Nu-PAGE™ (Invitrogen) and blotted onto nitrocellulose filters (Schleicher & Schuell). Western blots were blocked in 3% skimmed milk (MPBS) in PBS, and subsequently incubated with a polyclonal antibody that was raised against a FeIL-12 p40 peptide diluted 1:300 in MPBS. Blocking and antibody incubation were each performed for 1 h at room temperature. After extensive washing (3 times 5 min), blots were incubated with alkaline peroxidase (AP)-conjugated goat anti-rabbit IgG antibodies (Sanbio) diluted 1:1000 in MPBS for 1 h at room temperature. After washing (3 times 5 min), bound AP-labeled secondary antibodies were visualized via staining. […]"}
{"protein": "chicken IL-12 p40 subunit (ChIL-12 p40) (ligand, also called chicken p40; clone pND89) QWKLRENVYVIESEWNDETPAKKVKLTCDTSDEALPVYWKKGTELKGTGKTLTTEVKEFPDAGNYTCLSAKTHEIISYSFFLITKVDSNGQMIRSILKSYKEPSKTFLKCEAKNYSGIFTCSWMTENESPSVKFTIRSLKGSQGDVTCSSPVARTDKSVTEYTAQCQKENYCPFAEEHQPTEMFLEVIDEVEYENYTSSFFIRDIIKPDPPQCQYASTNGTVTWTYPKTWSTPKSYFPLTFRVKVESTKKYKSKVYDADEQSIQIPKTGPKDKISVQARDRYYNSSWSEWSTLCR", "values": [{"measurement": "binding result", "result": "binds"}]}
